Substitutions are numbered along the chain they refer to. Numbers in names are those of the source.

The chains are these.
B1: XPA23 Fab, heavy chain Y101W (Fab, V domains shown)
VH: EVQLLESGGGLVQPGGSLRLSCAASGFTFSKYFMFWVRQAPGKGLEWVSVISPSGGMTRYADSVKGRFTISRDNSKNTLYLQMNSLRAEDTAVYYCARVGWGGNSDYWGQGTLVTVSS
VL: DIQMTQSPSSVSASVGDRLTIICRASQDINRWLAWYQQTPGNAPKLLIHSATSLQSGVPSRFSGSGSGTDFTLTINSLQPEDFATYYCQQADSFPLTFGGGTKVEIK
B2: XPA23 Fab, heavy chain Y107S (Fab, V domains shown)
VH: B1 VH with W101Y, Y107S
VL: B1 VL
B3: XPA23 Fab, heavy chain Y107R (Fab, V domains shown)
VH: B1 VH with W101Y, Y107R
VL: B1 VL
B4: XPA23 Fab, heavy chain Y101E (Fab, V domains shown)
VH: B1 VH with W101E
VL: B1 VL
B5: XPA23 Fab, heavy chain Y107F (Fab, V domains shown)
VH: B1 VH with W101Y, Y107F
VL: B1 VL
B6: XPA23 Fab, heavy chain Y107K (Fab, V domains shown)
VH: B1 VH with W101Y, Y107K
VL: B1 VL
B7: XPA23 Fab, heavy chain Y107Q (Fab, V domains shown)
VH: B1 VH with W101Y, Y107Q
VL: B1 VL
B8: XPA23 Fab, heavy chain Y101F (Fab, V domains shown)
VH: B1 VH with W101F
VL: B1 VL
B9: XPA23 Fab, heavy chain Y101N (Fab, V domains shown)
VH: B1 VH with W101N
VL: B1 VL
B10: XPA23 Fab, heavy chain Y107N (Fab, V domains shown)
VH: B1 VH with W101Y, Y107N
VL: B1 VL
B11: XPA23 Fab, heavy chain Y32S (Fab, V domains shown)
VH: B1 VH with Y32S, W101Y
VL: B1 VL
B12: XPA23 Fab, heavy chain Y32Q (Fab, V domains shown)
VH: B1 VH with Y32Q, W101Y
VL: B1 VL
B13: XPA23 Fab, heavy chain Y107W (Fab, V domains shown)
VH: B1 VH with W101Y, Y107W
VL: B1 VL
B14: XPA23 Fab, heavy chain Y101H (Fab, V domains shown)
VH: B1 VH with W101H
VL: B1 VL
B15: XPA23 Fab, heavy chain Y101R (Fab, V domains shown)
VH: B1 VH with W101R
VL: B1 VL
B16: XPA23 Fab, heavy chain Y101Q (Fab, V domains shown)
VH: B1 VH with W101Q
VL: B1 VL
B17: XPA23 Fab, heavy chain Y107D (Fab, V domains shown)
VH: B1 VH with W101Y, Y107D
VL: B1 VL
B18: XPA23 Fab, heavy chain Y101D (Fab, V domains shown)
VH: B1 VH with W101D
VL: B1 VL
B19: XPA23 Fab, heavy chain Y107H (Fab, V domains shown)
VH: B1 VH with W101Y, Y107H
VL: B1 VL
B20: XPA23 Fab, heavy chain Y107E (Fab, V domains shown)
VH: B1 VH with W101Y, Y107E
VL: B1 VL
B21: XPA23 light chain A51D (Fab, V domains shown)
VH: B1 VH with W101Y
VL: B1 VL with A51D
B22: XPA23 light chain A51Q (Fab, V domains shown)
VH: B1 VH with W101Y
VL: B1 VL with A51Q
B23: XPA23 light chain A51W (Fab, V domains shown)
VH: B1 VH with W101Y
VL: B1 VL with A51W
B24: XPA23 light chain A51V (Fab, V domains shown)
VH: B1 VH with W101Y
VL: B1 VL with A51V
B25: XPA23 light chain A91F (Fab, V domains shown)
VH: B1 VH with W101Y
VL: B1 VL with A91F
B26: XPA23 light chain A51Y (Fab, V domains shown)
VH: B1 VH with W101Y
VL: B1 VL with A51Y
B27: XPA23 light chain A91N (Fab, V domains shown)
VH: B1 VH with W101Y
VL: B1 VL with A91N
B28: XPA23 light chain A51R (Fab, V domains shown)
VH: B1 VH with W101Y
VL: B1 VL with A51R
B29: XPA23 light chain A91Q (Fab, V domains shown)
VH: B1 VH with W101Y
VL: B1 VL with A91Q
B30: XPA23 light chain A51G (Fab, V domains shown)
VH: B1 VH with W101Y
VL: B1 VL with A51G
B31: XPA23 light chain A51T (Fab, V domains shown)
VH: B1 VH with W101Y
VL: B1 VL with A51T
B32: XPA23 light chain A51L (Fab, V domains shown)
VH: B1 VH with W101Y
VL: B1 VL with A51L
B33: XPA23 light chain A91D (Fab, V domains shown)
VH: B1 VH with W101Y
VL: B1 VL with A91D
B34: XPA23 light chain A51F (Fab, V domains shown)
VH: B1 VH with W101Y
VL: B1 VL with A51F
B35: XPA23 light chain A51E (Fab, V domains shown)
VH: B1 VH with W101Y
VL: B1 VL with A51E
B36: XPA23 light chain A51N (Fab, V domains shown)
VH: B1 VH with W101Y
VL: B1 VL with A51N
B37: XPA23 light chain A91H (Fab, V domains shown)
VH: B1 VH with W101Y
VL: B1 VL with A91H
B38: XPA23 light chain A51H (Fab, V domains shown)
VH: B1 VH with W101Y
VL: B1 VL with A51H
B39: XPA23 light chain A51S (Fab, V domains shown)
VH: B1 VH with W101Y
VL: B1 VL with A51S
B40: XPA23 light chain A91E (Fab, V domains shown)
VH: B1 VH with W101Y
VL: B1 VL with A91E
B41: XPA23 light chain A51P (Fab, V domains shown)
VH: B1 VH with W101Y
VL: B1 VL with A51P
B42: XPA23 light chain A51I (Fab, V domains shown)
VH: B1 VH with W101Y
VL: B1 VL with A51I

The target of one assay is T1, IL-1beta (UniProt P01584 117-269).
T1 construct: also called IL-1β
In words: Biacore. Background: Surface plasmon resonance follows binding to a sensor surface in real time, without labels.
Turning to B1, the “fold difference in affinity vs parental” value was determined as 0.81 fold.
The same measure, in the same setting: then B2, with 0.89 fold; and B3, with 0.85 fold.
Still for that read-out and setting: then B4, with 0.03 fold.
Same read-out and setting: then B5, with 0.9 fold; and B6, with 0.82 fold; and B7, with 0.87 fold.
Regarding B8, the “fold difference in affinity vs parental” value came out at 0.85 fold.
The same measure, in the same setting: the same measure for B9: 0.06 fold.
With B10, the binding result is given as “no binding”.
With B11, the “fold difference in affinity vs parental” value is 1.33 fold.
Turning to B12, the binding result is “no binding”.
Turning to B13, the “fold difference in affinity vs parental” value came out at 0.89 fold.
The same measure, in the same setting: the same measure for B14: 0.04 fold; for B15: 0.85 fold.
On the same count and under the same terms, then B16, with 0.06 fold; and B17, with 0.85 fold.
As for B18, the binding result is “no binding”.
Consider B19, for which the binding result is listed as “no binding”.
B20: the “fold difference in affinity vs parental” value was determined as 0.9 fold.

Another assay concerns the target T2, IL-1β (UniProt P01584 117-269).
T2 construct: Antigen immobilised on the Biacore chip
Briefly: Biacore, periplasmic extract.
For the molecule B21, the “fold difference in affinity vs original” value came to 0.13 fold.
On to B22, for which the “fold difference in affinity vs original” value was determined as 0.24 fold.
The same measure, in the same setting: the same measure for B23: 0.24 fold; for B24: 0.31 fold.
In the case of B25, the binding result was “no binding”.
Turning to B26, the “fold difference in affinity vs original” value is 0.45 fold.
With B27, the “fold difference in affinity vs original” value is 0.1 fold.
B28: the “fold difference in affinity vs original” value was 0.18 fold.
For B29, the binding result is recorded as “no binding”.
B30: the “fold difference in affinity vs original” value is 3.84 fold.
Turning to B31, the “fold difference in affinity vs original” value was 0.76 fold.
The same measure, in the same setting: then B32, with 0.16 fold; and B33, with 1.08 fold.
Take B34: the binding result is on record as “no binding”.
As to B35, the “fold difference in affinity vs original” value came out at 0.29 fold.
Same read-out and setting: the same measure for B36: 0.3 fold.
Still for that read-out and setting: then B37, with 1.12 fold; and B38, with 0.61 fold; and B39, with 0.95 fold.
Same read-out and setting: then B40, with 0.1 fold; and B41, with 0.13 fold.
As to B42, the binding result is given as “no binding”.

(Values after US20110118131A1 (published 2011).)
